These results are taken from patent US20230226096A1 (Orna Therapeutics, Inc., priority 2020, published 2023).

To fix the notation:
B1: Posavirus 1 (nucleic acid)
DNA: ACATTTCCTTGCGTGCGCACCCGAAAATTTATTGAACTTGGCTTGAATCATAAGTAATGCTTCTTATAGCGGACACTTTGAGAATATAATGCTTGTATGGATTAATGTATACTGTTTTAAATAACAAACCTAGACACGCAGTTGCGTTGATGGTTGTATCAATCACATATAAGTGTTGAACTCGTGTTAATCCTCGATCGCTATATGTTTGCCGCCTACTTCCAATAAAATAGATTACATGCGCGTCATGCCTTTGTGGGTTACCTATTGGCCTCTGACAAAAACAAGTCGTAAGATTTGTAGCTTCCCGGTGTAAAAAGCTGGGCGCGGTCTGGCTCTCGTAGGGTGGAAAGGTCCACCAATGGCTGGTTGAGTGTAAGCTCCGGTGTCCTGGTTGTCGCAATTCCAGGCGTCGTAATAACCTATATTGCATCTGACTCTAACTCTTGTGGCTCTACTGTATCTAGTTCTTGTTCTACTAACTCTAATAATACTACTGGCTCTAATACTGAAAAACTTACATATGTTAATATAGATAATATCCTTGATCCTGATATCCCTCACGTCACTGAAGTTCGCCGAAAACGAATTTCAGATCATATCATTGAATCTCAAGGATGTACTTGCTCTGAACCTACTATAACTCCTCATGCGTTTTCATTTTCTACTCTTGGC
B2: A110-675 (nucleic acid)
DNA: ACCTTTGTGCGCCTGTTTTATACCCCCTCCCCCAACTGTAACTTAGAAGTAACACACACCGATCAACAGTCAGCGTGGCACACCAGCCACGTTTTGATCAAGCACTTCTGTTACCCCGGACTGAGTATCAATAGACTGCTCACGCGGTTGAAGGAGAAAGCGTTCGTTATCCGGCCAACTACTTCGAAAAACCTAGTAACACCGTGGAAGTTGCAGAGTGTTTCGCTCAGCACTACCCCAGTGTAGATCAGGTCGATGAGTCACCGCATTCCCCACGGGCGACCGTGGCGGTGGCTGCGTTGGCGGCCTGCCCATGGGGAAACCCATGGGACGCTCTAATACAGACATGGTGCGAAGAGTCTATTGAGCTAGTTGGTAGTCCTCCGGCCCCTGAATGCGGCTAATCCTAACTGCGGAGCACACACCCTCAAGCCAGAGGGCAGTGTGTCGTAACGGGCAACTCTGCAGCGGAACCGACTACTTTGGGTGTCCGTGTTTCATTTTATTCCTATACTGGCTGCTTATGGTGACAATTGAGAGATCGTTACCATATAGCTATTGGATTGGCCATCCGGTGACTAATAGAGCTATTATATATCCCTTTGTTGGGTTTATACCACTTAGCTTGAAAGAGGTTAAAACATTACAATTCATTGTTAAGTTGAATACAGCAAA
B3: A115-675 (nucleic acid)
DNA: ACCTTTGTGCGCCTGTTTTATACCCCCCCCAACCTCGAAACTTAGAAGTAAAGCAAACCCGATCAATAGCAGGTGCGGCGCACCAGTCGCATCTTGATCAAGCACTTCTGTAACCCCGGACCGAGTATCAATAGACTGCTCACGCGGTTGAAGGAGAAAACGTTCGTTACCCGGCTAACTACTTCGAGAAACCCAGTAGCATCATGAAAGTTGCAGAGTGTTTCGCTCAGCACTACCCCCGTGTAGATCAGGCCGATGAGTCACCGCACTTCCCCACGGGCGACCGTGGCGGTGGCTGCGTTGGCGGCCTGCCTATGGGGCAACCCATAGGACGCTCTAATACGGACATGGTGCGAAGAGTCTATTGAGCTAGTTAGTAGTCCTCCGGCCCCTGAATGCGGCTAATCCTAACTGCGGAGCACATACCCTTAATCCAAAGGGCAGTGTGTCGTAACGGGTAACTCTGCAGCGGAACCGACTACTTTGGGTGTCCGTGTTTCCTTTTAATTTTTACTGGCTGCTTATGGTGACAATTGAGGAATTGTTGCCATATAGCTATTGGATTGGCCATCCGGTGACTAACAGAGCTATTGTGTTCCAATTTGTTGGATTTACCCCGCTCACACTCACAGTCGTAAGAACCCTTCATTACGTGTTATTTCTCAACTCAAGAAA
B4: Kobuvirus 16317 (nucleic acid, listed as Kobuvirus sp.)
DNA: TTACTCCATTCAGCTTCTTCGGAACCTGTTCGGAGGAATTAAACGGGCACCCATACACCCCCATCCCCTTTCTGCAACTTAAGTATGTGTGCTCGTGATCTTGACTCCCACGGAATGGATCGATCCGCTGGAGAACAAACTGCTAGATCCACATCCTCCCTTCCCCTGGGAGGACCTTGGTCCTCCCACATCCTCCCCCCAGCCTGACGTACCACAGGCTGTGTGAAGCCCCCGCGAAAGCTGCTCACGTGGCAATTGTGGGTCCCCCCTTCATCAAGACACCAGGTCTTTCCTCCTTAAGGCTAGCCCCGATGTGTGAATTCACATTGGGCAACTAGTGGTGTCACTGTGCGCTCCCAATCTCGGCCGCGGAGTGCTGTTCCCCAAGCCAAACCCCTGGCCCTTCACTATGTGCCTGGCAAGCATACCTGAGAAGGTGTTCCGCTGTGGCTGCCAGCCTGGTAACAGGTGCCCCAGTGTGCGTAACCTTCTTCCGTCTTCGGACGGTAGTGATTGGTTAAGATTTGGTGTAAGGTCCATGTGCCAACGCCCTGTGCGGGATGAAACCTCTACTGCCCTAGGAATGCCAGGCAGGTACCCCACCCCCGGGTGGGATCTGAGCCTGGGCTAATTGTCTACGGGTAGTTTCATTTCCAATTCTTTTATGTCGGAGTC
B5: 18-675 (nucleic acid)
DNA: CCCACAGCAAGAATGCCATCATCTGTCCTCACCCCCAATTTTCCCTTTTCTTCCCCTGCAACCATTACGCTTACTCGCATGTGCATTGAGTGGTGCATGTGTTGAACAAACAGCTACACTCACATGGGGGCGGGTTTTCCCGCCCTACGGCCTCTCGCGAGGCCCACCCCTTCCCTCCCCTTATAACTACAGTGCTTTGGTAGGTAAGCATCCTGATCCCCCGCGGAAGCTGCTCACGTGGCAACTGTGGGGACCCAGACAGGTTATCAAAGGCACCCGGTCTTTCCGCCTTCAGGAGTATCCCTACTAGTGAATTCTAGCGGGGCTCTGCTTGGTGCCAACCTCCCCCAAATGCGCGCTGCGGGAGTGCTCTTCCCCAACTCACCCTAGTATCCTCTCATGTGTGTGCTTGGTCAGCATATCTGAGACGATGTTCCGCTGTCCCAGACCAGTCCAGTAATGGACGGGCCAGTGCGTGTAGTCGTCTTCCGGCTTGTCCGGGGCATGTTTGGTGAACCGGTGGGGTAAGGTTGGTGTGCCCAACGCCCGTACTTTGGTGACACCTCAAGACCACCCAGGAATGCCAGGGAGGTACCCCACCTCACGGTGGGATCTGACCCTGGGCTAATTGTCTACGGTGGTTCTTCTTGCTTCCACTTCTTTCTTCTGTTCACG
B6: A73-675 (nucleic acid)
DNA: TTACTCCATTCAGCTTCTTCGGAACCTGTTCGGAGGAATTAAACGGGCACCCATACTCCCCCCACCCCCCTTTTGTAACTAAGTATGTGTGCTCGTGATCTTGACTCCCACGGAACGGACCGATCCGTTGGTGAACAAACAGCTAGGTCCACATCCTCCCTTCCCCTGGGAGGGCCCCCGCCCTCCCACATCCTCCCCCCAGCCTGACGTATCACAGGCTGTGTGAAGCCCCCGCGAAAGCTGCTCACGTGGCAATTGTGGGTCCCCCCTTCATCAAGACACCAGGTCTTTCCTCCTTAAGGCTAGCCCCGGCGTGTGAATTCACGTTGGGCAACTAGTGGTGTCACTGTGCGCTCCCAATCTCGGCCGCGGAGTGCTGTTCCCCAAGCCAAACCCCTGGCCCTTCACTATGTGCCTGGCAAGCATATCTGAGAAGGTGTTCCGCTGTGGCTGCCAACCTGGTGACAGGTGCCCCAGTGTGCGTAACCTTCTTCCGTCTCCGGACGGTAGTGATTGGTTAAGATTTGGTGTAAGGTTCATGTGCCAACGCCCTGTGCGGGATGAAACCTCTACTGCCCTAGGAATGCCAGGCAGGTACCCCACCTCCGGGTGGGATCTGAGCCTGGGCTAATTGTCTACGGGTAGTTTCATTTCCAATCCTTTTATGTCGGAGTC
B7: A105-675 (nucleic acid)
DNA: CCACCCACAGCAAGAATGCCATCATCTGTCCTCACCCCCATTTCTCCCCTCCTTCCCCTGCAACCATTACGCTTACTCGCATGTGCATTGAGTGGTGCACGTGTTGAACAAACAGCTACACTCACGTGGGGGCGGGTTTTCCCGCCCTTCGGCCTCTCGCGAGGCCCACCCTTCCCCTTCCTCCCATAACTACAGTGCTTTGGTAGGTAAGCATCCTGATCCCCCGCGGAAGCTGCTCGCGTGGCAACTGTGGGGACCCAGACAGGTTATCAAAGGCACCCGGTCTTTCCGCCTCCAGGAGTATCCCTGCTAGTGAATTCTAGTGGGGCTCTGCTTGGTGCCAACCTCCCCCAAATGCGCGCTGCGGGAGTGCTCTTCCCCAACTCACCCTAGTATCCTCTCATGTGTGTGCTTGGTCAGCATATCTGAGACGATGTTCCGCTGTCCCAGACCAGTCCAGCAATGGACGGGCCAGTGTGCGTAGTCGTCTTCCGGCTTGTCCGGCGCATGTTTGGTGAACCGGTGGGGTAAGGTTGGTGTGCCCAACGCCCGTACTTTGGTGACAACTCAAGACCACCCAGGAATGCCAGGGAGGTACCCCGCCTCACGGCGGGATCTGACCCTGGGCTAATTGTCTACGGTGGTTCTTCTTGCTTCCATTTCTTTCTTCTGTTC
B8: Tropivirus A (nucleic acid)
DNA: TGTCGCATGTTGCCAACATCAAAATTCTGGGAGAGTCGCGAACTCCTTAACACTGCCTTGCCTCGACGGAGCCGTTGTTATAGTGTCGACGGGATACAAACATTAAACTAAACCCACTTGCCTCGACGGAACCCCTTACCTTTTATTTTATTTTATAGTATGAAAGTGAATCTTGTATGAATGTTCATAGAAAACTGCAAATGAGTACCACGTCTAACATGAGAGAATGATACTGGAGAAATCCAAGTTTAGAAGTCACTACGAATCCCAGCGGAAACAAGGGAATTCTGAGCTTCTAATAGGCGTTTAAGACTATTTGCAAAATTCTGGTGCGTAAGTGATATTTTCATTGCGTAGAACGCTGGTAACCACTCCGGCTAGTATAAGCATTGTTAGTCACTTATTATGAAACTCCACACTATCCTTTCTGGAGAAGCACACAAACTTACATGGTAAAGCTAGACCATTATCTTAAGCGGTGAGTACACTGCAACCTTGTAACAATGCTTGTATGACTACTTTTTGTATATCTTGAGCAATATTGTTGAGGTGGACATGTCCAAAGGTAATGTTGTTGGGAATGGAGGGGTCCATTTTCCCGTGCACGTAGTGTACTAGTATTGGGTGATAGCCTTGCGGCGGATCAACCATGTATTTTAATCCGTTGACTTTCAC
modifications: Tropivirus A

The series concerns HEK293 cells. In kind it is cell-based, human. The settings on record: luminescence from secreted Gluc in supernatant 24 hours after transfection of HEK293 cells; circular RNA encoding Gluc with the named IRES (UTR truncated to 675 nt).
For B1, the Expression came out at 1.55E+06.

With B2, the Expression is 1.24E+08.

B3 yielded an Expression of 5.93E+07.

Regarding B4, the Expression turned out to be 2.03E+07.

In the case of B5, the Expression was 6.04E+07.

For the molecule B6, the Expression is given as 1.30E+08.

For B7, the Expression was determined as 2.18E+07.

B8 displayed an Expression of 9.52E+04.
